From US20220389120A1

Target: PD-1 (UniProt Q15116)
Assay: PD-1 blocking assay

PD-1, sequence (Q15116 25-167): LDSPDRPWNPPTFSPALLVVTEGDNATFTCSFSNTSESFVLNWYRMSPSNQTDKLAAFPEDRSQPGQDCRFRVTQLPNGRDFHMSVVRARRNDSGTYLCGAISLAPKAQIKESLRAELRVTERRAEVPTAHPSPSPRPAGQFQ

IC50: 0.282 nM
Substance: Keytruda
